Data published in patent US20150038419A1 (US Dept. of Health and Human Services, published 2015).

Columns and labels:
[1] = molecular target: T1, elastase (human; for SPR purified from human sputum) (human, UniProt P08246 30-267); assay: cell-based or functional assay
T1 sequence (looked up): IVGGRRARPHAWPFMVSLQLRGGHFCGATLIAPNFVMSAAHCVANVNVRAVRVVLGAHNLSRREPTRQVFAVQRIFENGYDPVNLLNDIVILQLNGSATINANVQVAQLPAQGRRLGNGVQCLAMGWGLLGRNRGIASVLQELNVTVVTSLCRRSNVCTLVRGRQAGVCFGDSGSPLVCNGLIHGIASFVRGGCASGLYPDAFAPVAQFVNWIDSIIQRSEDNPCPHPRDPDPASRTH

cathepsin G (human) [2] = molecular target: T2, cathepsin G (human) (human, UniProt P08311 21-244); assay: cell-based or functional assay
T2 sequence (looked up): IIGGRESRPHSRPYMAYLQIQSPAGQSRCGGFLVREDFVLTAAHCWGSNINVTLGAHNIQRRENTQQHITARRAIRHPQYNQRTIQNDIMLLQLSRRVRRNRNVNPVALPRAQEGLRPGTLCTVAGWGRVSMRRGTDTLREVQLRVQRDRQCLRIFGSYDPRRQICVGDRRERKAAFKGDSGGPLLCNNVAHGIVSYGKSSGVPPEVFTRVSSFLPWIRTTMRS

plasmin (human) = plasmin (human) (human, UniProt P00747 97-810); assay: cell-based or functional assay
kallikrein (human) = kallikrein (human) (human, UniProt P03952 20-638, limits assumed); assay: cell-based or functional assay
[3] = molecular target: trypsin (sequencing grade, Roche) (human); assay: cell-based or functional assay
skin β-tryptase (human) = skin β-tryptase (human) (human, UniProt Q15661 31-275); assay: cell-based or functional assay
[4] = molecular target: T3, human activated coagulation factor X (FXa) (human, UniProt P00742 41-179; P00742 235-488); assay: cell-based or functional assay
[5] = molecular target: coagulation Factor XIa (FXIa) (human, UniProt P03951 19-625); assay: cell-based or functional assay
[6] = molecular target: T4, coagulation Factor VIIa (FVIIa), recombinant (UniProt P08709 61-466); assay: SPR (Biacore T100), rSimukunin immobilized on CM5
T4 construct: mature
T4 sequence (looked up): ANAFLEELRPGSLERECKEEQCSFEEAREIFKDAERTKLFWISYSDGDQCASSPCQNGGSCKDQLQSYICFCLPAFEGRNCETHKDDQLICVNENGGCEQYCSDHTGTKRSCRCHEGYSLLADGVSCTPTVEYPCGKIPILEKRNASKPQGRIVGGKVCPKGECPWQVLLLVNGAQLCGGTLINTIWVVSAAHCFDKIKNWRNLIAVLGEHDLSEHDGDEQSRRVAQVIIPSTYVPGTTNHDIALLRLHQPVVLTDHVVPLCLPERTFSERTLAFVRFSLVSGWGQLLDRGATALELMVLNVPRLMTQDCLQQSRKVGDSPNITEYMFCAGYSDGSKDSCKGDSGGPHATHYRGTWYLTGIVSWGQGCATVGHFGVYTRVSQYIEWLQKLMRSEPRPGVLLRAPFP

[7] = molecular target: T5, coagulation Factor XIIIa (FXIIIa) (UniProt P00488 39-732, limits assumed); assay: SPR (Biacore T100), rSimukunin immobilized on CM5
T5 construct: mature
T5 sequence (looked up): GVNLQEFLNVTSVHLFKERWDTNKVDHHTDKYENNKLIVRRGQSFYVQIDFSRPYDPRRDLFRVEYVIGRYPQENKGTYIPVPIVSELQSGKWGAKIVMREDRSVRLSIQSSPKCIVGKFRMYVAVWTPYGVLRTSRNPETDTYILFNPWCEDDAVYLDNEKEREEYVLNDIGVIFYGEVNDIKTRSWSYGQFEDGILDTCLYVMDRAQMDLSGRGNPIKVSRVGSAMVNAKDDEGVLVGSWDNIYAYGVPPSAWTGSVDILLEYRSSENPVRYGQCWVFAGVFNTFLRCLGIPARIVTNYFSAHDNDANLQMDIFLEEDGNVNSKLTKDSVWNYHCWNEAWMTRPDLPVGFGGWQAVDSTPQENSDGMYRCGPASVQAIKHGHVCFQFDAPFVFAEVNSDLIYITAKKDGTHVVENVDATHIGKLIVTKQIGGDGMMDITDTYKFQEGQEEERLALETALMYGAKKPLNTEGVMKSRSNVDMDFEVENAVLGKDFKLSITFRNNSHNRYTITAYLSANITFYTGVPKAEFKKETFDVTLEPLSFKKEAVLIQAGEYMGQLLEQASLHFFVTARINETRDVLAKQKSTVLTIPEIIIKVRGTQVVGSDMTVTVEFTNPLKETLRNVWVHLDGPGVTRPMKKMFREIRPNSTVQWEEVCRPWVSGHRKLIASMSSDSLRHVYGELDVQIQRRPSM

[8] = molecular target: T6, coagulation Factor X (FX), zymogen precursor of FXa (UniProt P00742 41-488); assay: SPR (Biacore T100), rSimukunin immobilized on CM5
T6 construct: mature; also called zymogenic form of FX

[9] = molecular target: T3, human activated coagulation factor X …; assay: SPR (Biacore T100), rSimukunin immobilized on CM5, FXa as analyte, 1:1 Langmuir fit
Experimental: (§1) Data were fitted using a […] binding model (Langmuir). RU: resonance units.
(§2) Surface plasmon resonance (SPR) assays. SPR experiments were conducted using a T100 instrument (Biacore Inc., Uppsala, Sweden) following the manufacturer's instructions. Sensor CM5, amine coupling reagents, and buffers were also purchased from Biacore Inc. (Piscataway, N.J., USA). IBS P (10 mM Hepes, pH 7.4, 150 mM NaCl, and 0.005% (v/v) P20 surfactant) was used as the running buffer for all SPR experiments, which were carried out as previously described (Albrecht et al., 1983, Hoppe Seylers Z Physiol Chem; 364:1697-1702). For analytes, FVIIa (recombinant) was purchased from American Diagnostica (Stamford, Conn.); FX, FXa (human, bovine, mouse), DEGR-FXa (human), des-Gla-FXa (human), FIXa, FXIa, FXIIIa, and thrombin were purchased from Haematologic Technologies, Inc. (Essex Junction, Vt.); elastase (purified from human sputum) was purchased from Molecular Innovations, Inc. (Novi, Mich.). All enzymes were of the highest available purity. For immobilization and kinetic analysis, rSimukunin (10 μg/ml) in acetate buffer pH 5.0 was immobilized over a CM5 sensor via amine coupling, resulting in a final immobilization of 475.3 RU. Kinetic experiments were carried out with a contact time of 180 seconds at a flow rate of 30 μl/minute at 25° C. rSimukunin-FXa complex dissociation was monitored for 1800 seconds, and the sensor surface was regenerated by a pulse of 30 seconds of 20 mM HCl at 30 μl/minute. In other experiments, other coagulation factors or enzymes were used as analytes. Blank flow cells were used to subtract the buffer effect on sensorgrams.

[10] = molecular target: T1, elastase (human; for SPR purified from …); assay: SPR (Biacore T100), rSimukunin immobilized on CM5, elastase as analyte, 1:1 Langmuir fit
Experimental: as §1, §2

[11] = molecular target: T1, elastase (human; for SPR purified from …); assay: calculated by Cheng-Prusoff from the enzyme-inhibition IC50 and the substrate Km (250 uM substrate)
Experimental: (§3) The Kₘ for the elastase substrate was 38.5±3.3 μM, and the estimated Kᵢ was ˜0.65 nM. For FXa the substrate Kₘ was 161.6±17.4 μM, and the estimated Kᵢ was ˜2.1 nM. For Cathepsin G the Kₘ was 188±20 μM, and the Kᵢ was 100 nM. A general chymotrypsin substrate was used to assess Cathepsin G activity; as this substrate is not optimized for Cathepsin G it is likely that our measurement of the Kᵢ underestimates the effect of rSimukunin. Further studies of the effect of rSimukunin on Cathepsin G will be performed.
(§4) Enzymes, at the concentrations given in Table 1, were incubated with the indicated concentration of rSimukunin for five minutes at 30° C., followed by addition of substrate (250 μM final concentration). The amount of enzyme used in the assays was the lowest possible to give a linear substrate hydrolysis rate in the assays (r2>0.95). Substrate hydrolysis was followed in a Tecan Infinite M200 96-well plate fluorescence reader (Tecan group Ltd, Switzerland) using 365 nm excitation and 450 nm emission wavelength with a cutoff at 435 nm for 20 min at 30° C. Wells without enzyme were used to monitor spontaneous substrate hydrolysis and protease contamination in the inhibitor preparation. All experiments were performed in triplicate (for each enzyme and each concentration of the inhibitor). […]

[12] = molecular target: T3, human activated coagulation factor X …; assay: as above
Experimental: as §3, §4

chymase (human) = molecular target: T7, chymase (human) (human, UniProt P23946 22-247); assay: enzyme inhibition assay, fluorogenic peptide substrate, 500 nM rSimukunin, 1.8 nM enzyme
T7 construct: mature
T7 sequence (looked up): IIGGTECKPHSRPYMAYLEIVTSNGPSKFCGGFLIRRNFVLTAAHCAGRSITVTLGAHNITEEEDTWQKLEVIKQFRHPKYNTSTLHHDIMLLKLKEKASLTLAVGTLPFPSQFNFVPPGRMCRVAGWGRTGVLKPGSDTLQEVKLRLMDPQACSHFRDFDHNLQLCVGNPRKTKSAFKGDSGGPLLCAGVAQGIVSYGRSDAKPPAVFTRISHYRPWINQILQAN
Experimental: Serine protease inhibition assays. rSimukunin (500 nM) was first pre-incubated with each enzyme for 10 min before the addition of the corresponding substrate. The amount of enzyme used in the assays was the lowest possible to give a linear substrate hydrolysis rate in the assays (r²>0.95). After incubation for 5 min at 30° C., substrate hydrolysis rate was followed in a Tecan Infinite M200 96-well plate fluorescence reader (Tecan group Ltd, Switzerland) using 365 nm excitation and 450 nm emission wavelength with a cutoff at 435 nm for 20 min at 30° C. Wells without enzyme were used to monitor spontaneous substrate hydrolysis and protease contamination in the inhibitor preparation. A t-test was used for the statistical analysis of the observed inhibition in the presence of 500 nM rSimukunin and when p<0.05, it was considered as statistically significant.
All enzymes used were of human origin and of the highest available purity. […]

cathepsin G (human) [13] = molecular target: T2, cathepsin G (human); assay: calculated by Cheng-Prusoff from the enzyme-inhibition IC50 and the substrate Km (250 uM general chymotrypsin substrate)
Experimental: as §3, §4

T3 sequence (P00742 41-179 limits assumed, chain 1 of 2): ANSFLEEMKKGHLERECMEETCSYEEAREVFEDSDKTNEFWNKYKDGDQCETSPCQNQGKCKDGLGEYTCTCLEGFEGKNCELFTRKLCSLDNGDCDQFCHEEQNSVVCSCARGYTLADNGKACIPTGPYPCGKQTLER
T3 sequence (P00742 235-488 limits assumed, chain 2 of 2): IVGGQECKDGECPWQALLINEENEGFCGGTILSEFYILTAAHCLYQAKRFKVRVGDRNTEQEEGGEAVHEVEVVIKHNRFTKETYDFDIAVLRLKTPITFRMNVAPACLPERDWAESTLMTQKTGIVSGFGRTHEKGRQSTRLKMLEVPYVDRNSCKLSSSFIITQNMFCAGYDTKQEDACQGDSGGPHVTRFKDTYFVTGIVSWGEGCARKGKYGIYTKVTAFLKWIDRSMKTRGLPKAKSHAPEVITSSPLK
Sequence of kallikrein (human) (P03952 20-638 limits assumed): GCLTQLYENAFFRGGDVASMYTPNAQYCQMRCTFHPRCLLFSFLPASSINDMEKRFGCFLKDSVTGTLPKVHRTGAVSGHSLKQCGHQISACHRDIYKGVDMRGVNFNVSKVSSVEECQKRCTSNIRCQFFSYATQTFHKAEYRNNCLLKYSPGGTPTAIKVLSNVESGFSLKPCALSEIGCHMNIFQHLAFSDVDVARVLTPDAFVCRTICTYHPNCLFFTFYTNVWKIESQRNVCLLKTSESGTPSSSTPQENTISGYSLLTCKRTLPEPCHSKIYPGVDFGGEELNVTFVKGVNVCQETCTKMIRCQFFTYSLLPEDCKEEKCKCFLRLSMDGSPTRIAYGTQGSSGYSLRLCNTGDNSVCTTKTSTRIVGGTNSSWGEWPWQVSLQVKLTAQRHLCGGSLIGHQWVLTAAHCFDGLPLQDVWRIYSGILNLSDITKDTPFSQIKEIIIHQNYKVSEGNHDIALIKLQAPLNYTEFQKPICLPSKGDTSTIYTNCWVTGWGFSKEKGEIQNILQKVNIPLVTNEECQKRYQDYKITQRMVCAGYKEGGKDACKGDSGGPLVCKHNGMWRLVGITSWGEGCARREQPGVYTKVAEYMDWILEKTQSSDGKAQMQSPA
Sequence of trypsin (sequencing grade, Roche) (human) (P00760 24-246): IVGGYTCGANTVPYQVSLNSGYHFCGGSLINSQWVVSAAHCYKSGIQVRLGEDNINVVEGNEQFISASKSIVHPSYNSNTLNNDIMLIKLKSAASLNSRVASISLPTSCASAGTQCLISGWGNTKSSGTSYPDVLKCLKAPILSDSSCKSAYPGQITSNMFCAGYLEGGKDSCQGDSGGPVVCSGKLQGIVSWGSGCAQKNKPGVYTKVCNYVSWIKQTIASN
Sequence of plasmin (human) (P00747 97-810): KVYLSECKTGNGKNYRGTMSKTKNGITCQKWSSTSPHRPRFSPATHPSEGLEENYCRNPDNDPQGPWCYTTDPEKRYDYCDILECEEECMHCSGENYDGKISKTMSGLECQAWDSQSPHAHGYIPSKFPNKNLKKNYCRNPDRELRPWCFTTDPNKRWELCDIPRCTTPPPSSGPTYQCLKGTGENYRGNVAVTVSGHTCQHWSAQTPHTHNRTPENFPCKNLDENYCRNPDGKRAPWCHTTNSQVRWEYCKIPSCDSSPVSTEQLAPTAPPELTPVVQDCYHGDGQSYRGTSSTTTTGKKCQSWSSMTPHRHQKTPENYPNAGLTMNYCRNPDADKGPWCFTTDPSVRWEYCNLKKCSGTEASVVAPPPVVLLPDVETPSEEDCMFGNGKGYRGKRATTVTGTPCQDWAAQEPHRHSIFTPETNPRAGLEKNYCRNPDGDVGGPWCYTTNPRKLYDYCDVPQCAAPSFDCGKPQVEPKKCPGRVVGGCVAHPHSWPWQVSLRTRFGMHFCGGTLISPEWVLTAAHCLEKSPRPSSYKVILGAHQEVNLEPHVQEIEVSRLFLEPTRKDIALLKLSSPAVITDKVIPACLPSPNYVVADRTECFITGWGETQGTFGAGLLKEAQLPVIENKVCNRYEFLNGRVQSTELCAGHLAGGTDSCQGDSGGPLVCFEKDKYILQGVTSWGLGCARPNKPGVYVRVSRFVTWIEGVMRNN
Sequence of coagulation Factor XIa (FXIa) (P03951 19-625 limits assumed): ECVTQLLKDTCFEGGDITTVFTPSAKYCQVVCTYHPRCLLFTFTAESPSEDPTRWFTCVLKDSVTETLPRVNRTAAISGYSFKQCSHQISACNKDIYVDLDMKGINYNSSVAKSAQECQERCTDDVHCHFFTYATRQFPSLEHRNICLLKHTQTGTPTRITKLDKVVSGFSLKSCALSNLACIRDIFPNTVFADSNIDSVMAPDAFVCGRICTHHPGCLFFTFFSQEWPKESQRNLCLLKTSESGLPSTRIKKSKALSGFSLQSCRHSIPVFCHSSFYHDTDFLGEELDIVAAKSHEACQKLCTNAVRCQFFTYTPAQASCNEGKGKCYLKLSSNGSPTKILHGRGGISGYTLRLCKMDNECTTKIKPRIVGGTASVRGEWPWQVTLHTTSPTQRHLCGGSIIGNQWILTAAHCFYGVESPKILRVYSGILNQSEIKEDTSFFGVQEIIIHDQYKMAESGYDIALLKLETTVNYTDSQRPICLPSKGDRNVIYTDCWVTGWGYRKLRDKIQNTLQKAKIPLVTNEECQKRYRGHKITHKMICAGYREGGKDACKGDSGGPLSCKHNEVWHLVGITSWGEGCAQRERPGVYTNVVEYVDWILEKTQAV
T6 sequence (P00742 41-488 limits assumed): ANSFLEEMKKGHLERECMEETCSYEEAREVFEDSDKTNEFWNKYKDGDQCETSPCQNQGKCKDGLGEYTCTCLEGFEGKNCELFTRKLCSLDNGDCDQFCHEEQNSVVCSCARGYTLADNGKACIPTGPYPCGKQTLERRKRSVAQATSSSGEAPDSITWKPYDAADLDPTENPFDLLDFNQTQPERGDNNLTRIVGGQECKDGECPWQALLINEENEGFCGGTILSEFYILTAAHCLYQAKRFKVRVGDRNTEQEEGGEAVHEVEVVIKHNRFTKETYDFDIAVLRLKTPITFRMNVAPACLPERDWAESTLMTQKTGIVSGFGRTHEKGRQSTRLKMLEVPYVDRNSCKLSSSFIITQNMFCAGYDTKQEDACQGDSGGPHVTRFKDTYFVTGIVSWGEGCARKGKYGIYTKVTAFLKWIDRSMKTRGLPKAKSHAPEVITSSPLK
Sequence of skin β-tryptase (human) (Q15661 31-275): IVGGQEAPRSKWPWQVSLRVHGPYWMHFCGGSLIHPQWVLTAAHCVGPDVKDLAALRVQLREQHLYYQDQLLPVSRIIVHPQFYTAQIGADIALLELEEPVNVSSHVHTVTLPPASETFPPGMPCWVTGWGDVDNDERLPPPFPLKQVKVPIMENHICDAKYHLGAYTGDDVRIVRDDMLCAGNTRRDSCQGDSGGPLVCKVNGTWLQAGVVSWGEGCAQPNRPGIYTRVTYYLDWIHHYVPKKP

B1: recombinant Simukunin (rSV-66), Simulium vittatum SV-66 without signal peptide, His-tagged, expressed in E. coli (other)
chain: QENVCNLPVDEGVCRALFKRFYYEPATDSCKEFYYGGCEGNGNRFKSKKECILKCQKNKQLIKTRKRKPKKTTKPPIPIISLD
notes: also called rSimukunin; WT rSimukunin; not shown: His tag(s) from vector pET-30 Ek/LIC ('C-terminal double His tags')
[1]
  Ratio of IC50 to enzyme concentration: 27.2
Cathepsin G (human) [2]
  Ratio of IC50 to enzyme concentration: 32.5
Plasmin (human)
  Ratio of IC50 to enzyme concentration: 161
Kallikrein (human)
  Ratio of IC50 to enzyme concentration: 1150
[3]
  Ratio of IC50 to enzyme concentration: 3790
Skin β-tryptase (human)
  Ratio of IC50 to enzyme concentration: 6680
[4]
  Ratio of IC50 to enzyme concentration: 52
[5]
  Ratio of IC50 to enzyme concentration: 945
[6]
  binding result: no binding (tested: 200 nM)
[7]
  binding result: no binding (tested: 200 nM)
[8]
  binding result: no binding (tested: 200 nM)
[9]
  Kd: 3.07 nM
  koff: 0.000303 s⁻¹
  kon: 98700 M⁻¹ s⁻¹
[10]
  Kd: 0.4 nM
  koff: 0.0173 s⁻¹
  kon: 4.3e+07 M⁻¹ s⁻¹
[11]
  Ki: ~0.65 nM
[12]
  Ki: ~2.1 nM
Chymase (human)
  binding result: binds
Cathepsin G (human) [13]
  Ki: 100 nM
